Measured values published in US20250127942A1 (MEDICOVESTOR, published 2025).

Target: T1, recombinant 6His-Sp17 protein (human, UniProt Q15506 1-151, limits assumed)
T1 construct: The species is not restated for this recombinant protein; not shown: 6His tag
T1 sequence (looked up): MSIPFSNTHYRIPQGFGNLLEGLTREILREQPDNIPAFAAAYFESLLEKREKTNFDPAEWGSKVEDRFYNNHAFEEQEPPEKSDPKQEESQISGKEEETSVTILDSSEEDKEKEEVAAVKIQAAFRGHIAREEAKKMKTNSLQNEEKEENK
Test: SPR (Biacore T200), 6His-Sp17 at 6.25-300 nM as analyte
Excerpt: The lines correspond, from highest to lowest, to fitted cycles for 300 nanomolar, 100 nanomolar, 50 nanomolar, 25 nanomolar, 12.5 nanomolar, and 6.25 nanomolar concentrations of 6His-Sp17.
The nucleotide sequences encoding the VH and VL regions of Example 1 were cloned into a mouse IgG2a heavy chain gene and a mouse kappa light chain gene, respectively, and expressed in CHO—S cells to produce a mouse-human chimeric antibody, which was named chAB2. Successful generation of the antibody was confirmed by SDS-PAGE and western blotting using anti-mouse heavy and light chain antibodies and recombinant Sp17 protein (FIGS. 2 & 3). The chAB2 antibody was reactive to mouse surface Sp17 protein expressed on the mouse ovarian cancer cell line ID8 (FIG. 4).

Kd: 2.07 nM
koff: 0.00013 s⁻¹
kon: 62600 M⁻¹ s⁻¹
B1: mouse-human chimeric anti-Sp17 IgG2a/kappa monoclonal antibody chAB2 (antibody, V domains shown)
VH: QVQLQQSGAEVKKPGSSVKVSCKASGGTFSSYAISWVRQAPGQGLEWMGRIIPILGIANYAQKFQGRVTITADKSTSTAYMELSSLRSEDTAVYYCARPSEEVVAAYGAFDIWGQGTTVTVSS
VL: EIVLTQSPLSLPVRPGEPASISCRASQSLLRSDGFNYLDWYLQKPGQSPQLLVYLGSNRASGVPDRFSGSGSGTDFTLKISRVEAEDVGVYYCMQAVQTPYIFGQGTKLEIK
notes: also called anti-Sp17 antibody chAB2; chimeric monoclonal antibody (chAB2); not shown: mouse IgG2a heavy chain constant region; mouse kappa light chain constant region
